# Assay results published in the supplement of paper PMC12042874.
# ± gives the uncertainty stated by the source.
# Assay: amyloid nucleation score (Sup35N fusion, yeast selection) (log enrichment); library NNK1; higher = more nucleation; inactive = no reads after selection
# Outline: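 Sup35N was fused to peptides of 20 random codons and expressed in psi-negative yeast, which were induced with 100 μM copper sulfate for 24 hours and then grown on medium lacking adenine and uracil for 7 days at 30°C. Plasmid inserts from input and output were sequenced on Illumina. The nucleation score is the DiMSum log enrichment of output over input reads, centred on the mode score of non-aggregating sequences. Sequences with under 100 input reads were left out, and random libraries had three technical output replicates.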
row,Substance,amyloid nucleation score
1,ISGFRKLVMVREVP,-0.606 ± 1.4
2,FVEVMLIVNFTGLGVV,0.576 ± 0.16
3,AYTCDV,0.03 ± 0.29
4,SMEIYLDFMNVCSKMVNASG,-0.093 ± 0.3
5,CHWLNVYSCFSYVVTYDWSN,6.044 ± 0.056
6,LVGFSVSYKVSENFCSTL,inactive
7,STVLATFHVE,0.041 ± 0.37
8,DEGRDLILISLAHRTSRIDP,1.29 ± 0.26
9,GSVAKRPVVKISRHPLCMVW,0.364 ± 0.24
10,FRLRVSGVSCMR,-0.912 ± 2.4
11,SASVAHLCDYVVENI,0.018 ± 0.54
12,LIFSNNWFYYTFYDS,5.85 ± 0.087
13,FSLLYV,0.321 ± 0.67
14,SKYGAYGRMVSSNLDT,-0.204 ± 0.84
15,FQTFSSICYMISFLIVG,0.928 ± 0.68
16,STNIGWAMINLKRYPVLRDA,-0.18 ± 0.29
17,YLVAVVIGSIPAPSRMYSVA,0.904 ± 0.51
18,RVIPAAVISHYVK,-0.143 ± 1.7
19,GSMQQNSFREMEPRDSTGGA,-0.844 ± 0.94
20,SYSIYALGSRLIVEYSYKWI,0.625 ± 0.39
21,RSFAYSLSQGYFANMNAKVR,inactive
22,PVGWGNTACSLRCTGHVSYV,-0.604 ± 1.7

row,Substance,amyloid nucleation score
1,TERDCRCSFGTVPMCSMGNW,0.595 ± 0.34
2,HYSHAWTVSRLMWNRDERGA,1.59 ± 0.2
3,SILEQILC,-0.324 ± 0.22
4,EMTCAWDGNELLFKQRRTIR,inactive
5,ETEGSELFNFWAGVNWRRIQ,-0.425 ± 1.3
6,TTLIILDTYLNMIVVGTLYW,0.11 ± 0.22
7,IEYCIVSFQSMGE,0.326 ± 0.46
8,MGNIVTLHFSHVGHRYSKWV,inactive
9,NYICMGP,1.38 ± 0.41
10,RCFECEGALV,-0.08 ± 1.1
11,VHWLNCRLLGSLWVVGANWL,inactive
12,IGGVFALHCRMNIAPGSHTL,2.38 ± 0.14
13,SGLGTNKRSTPWYHSRFEGQ,0.036 ± 0.47
14,MVWPFKRRRWHYGILALLDR,-1.22 ± 0.75
15,LCSNYQCLTTVYQLVVVAEW,3.54 ± 0.13
16,SVVIFHHTICLERDAVRQKF,5.02 ± 0.083
17,ILLELVASTVVLPLIT,0.165 ± 0.43
18,RYHRTGCLGILWLSLSHRLS,0.418 ± 0.59
19,FLIFIRFNGHCLSIGWFTLH,0.303 ± 1
20,TPSIYRNVCDIEGLLSSRYL,0.36 ± 0.54
21,YHIGTVVIPWLKVNRIYRGI,4.96 ± 0.081
22,WDETY,4.62 ± 0.07

row,Substance,amyloid nucleation score
1,EYVVRYSCMWRE,0.485 ± 1.2
2,HNSRWTRFRHLCSYITYGGC,-0.396 ± 0.58
3,RYHTVYGIYGRLWGWFMKFD,-0.159 ± 0.33
4,NDWVY,1.12 ± 0.53
5,RSTYVCKIRVRMIYVDVKCS,0.596 ± 0.46
6,HYYVLCFRVHLGQ,0.176 ± 1.1
7,SWWPDGLNEMSG,1.11 ± 0.74
8,AEAKN,-1.01 ± 0.9
9,STERKYLSLDKSWNVRLVLF,1.61 ± 0.23
10,ASGVWRQ,-0.47 ± 0.65
11,YSMHKLSVFRRTYSVTISRT,0.591 ± 0.55
12,QAKPIIGRRTPLNDFNSPLY,0.15 ± 0.37
13,RKSFLTLVNFYYLFRC,3.1 ± 0.12
14,MVLWW,-0.231 ± 0.58
15,ISISLRHECRYKMFEQ,2.22 ± 0.19
16,YCNGNRKVVEVDFDWILGGG,-0.33 ± 1.1
17,CNCAGDLYAVRLYDGGCSSL,-0.006 ± 0.46
18,YPAPPTNCLRQ,-0.449 ± 0.28
19,VVSVMLAFYTKDSFVVWLNL,1.02 ± 0.15
20,KNAVSSGRSGKITRR,0.231 ± 1.4
21,HCVRQTSWMLAENLAWEVWL,1.1 ± 0.58
22,NVLGLFQLRDSTQNGAMYIL,0.076 ± 0.62

row,Substance,amyloid nucleation score
1,KKVINPYFFGCTGCNNTQRK,-0.149 ± 0.31
2,DIFRIYMWVHCMDRHSDGTV,2.29 ± 0.27
3,AALVCPRFLTSKANFVPSKG,inactive
4,TVYIG,0.258 ± 0.3
5,IYISYIRRRFVGLFST,-0.938 ± 0.47
6,TNWVWELL,-0.544 ± 1.9
7,LSKCTKRKFTMCWDSLVRK,0.779 ± 0.26
8,RCCALTYPLFKHLG,0.573 ± 0.43
9,TISLLTHVFLDVLWCGR,-0.779 ± 0.61
10,MKQFIKNLNISLPPARTQLT,inactive
11,YLIMGNVFNVAVVGGIGCVE,0.345 ± 0.29
12,RHVAYRSLRFSGCTP,0.416 ± 0.76
13,DSFVRT,inactive
14,MIFPDQYYYSISPW,-0.115 ± 0.28
15,SIAYPRNIELRWDEIGGDML,0.178 ± 0.54
16,TIKMDTQVLVYIRKRNKYCW,-0.746 ± 0.79
17,IGFEIHFMYALE,0.355 ± 1
18,SEGIPPQFFRYTAGASNLDT,0.306 ± 0.64
19,ISGGLTGKWVFVLGDWWVMF,-0.206 ± 0.74
20,QYCIHNNFEYDGL,-0.98 ± 0.47
